Source: patent US20220064331A1 (Genentech, published 2022)
Where a chain is given by its changes, count along the chain named. Each block holds one binder with its values, some of them ahead of it.

Legend:
[1] = target: T1, rhesus monkey KLB (+N-ter FLAG) (rhesus monkey, UniProt Q86Z14 53-992 (human entry)); experiment: FACS on transfected HEK293T cells
T1 construct: expressed from KLB cDNA on HEK293T cells and read by FACS
T1 chain: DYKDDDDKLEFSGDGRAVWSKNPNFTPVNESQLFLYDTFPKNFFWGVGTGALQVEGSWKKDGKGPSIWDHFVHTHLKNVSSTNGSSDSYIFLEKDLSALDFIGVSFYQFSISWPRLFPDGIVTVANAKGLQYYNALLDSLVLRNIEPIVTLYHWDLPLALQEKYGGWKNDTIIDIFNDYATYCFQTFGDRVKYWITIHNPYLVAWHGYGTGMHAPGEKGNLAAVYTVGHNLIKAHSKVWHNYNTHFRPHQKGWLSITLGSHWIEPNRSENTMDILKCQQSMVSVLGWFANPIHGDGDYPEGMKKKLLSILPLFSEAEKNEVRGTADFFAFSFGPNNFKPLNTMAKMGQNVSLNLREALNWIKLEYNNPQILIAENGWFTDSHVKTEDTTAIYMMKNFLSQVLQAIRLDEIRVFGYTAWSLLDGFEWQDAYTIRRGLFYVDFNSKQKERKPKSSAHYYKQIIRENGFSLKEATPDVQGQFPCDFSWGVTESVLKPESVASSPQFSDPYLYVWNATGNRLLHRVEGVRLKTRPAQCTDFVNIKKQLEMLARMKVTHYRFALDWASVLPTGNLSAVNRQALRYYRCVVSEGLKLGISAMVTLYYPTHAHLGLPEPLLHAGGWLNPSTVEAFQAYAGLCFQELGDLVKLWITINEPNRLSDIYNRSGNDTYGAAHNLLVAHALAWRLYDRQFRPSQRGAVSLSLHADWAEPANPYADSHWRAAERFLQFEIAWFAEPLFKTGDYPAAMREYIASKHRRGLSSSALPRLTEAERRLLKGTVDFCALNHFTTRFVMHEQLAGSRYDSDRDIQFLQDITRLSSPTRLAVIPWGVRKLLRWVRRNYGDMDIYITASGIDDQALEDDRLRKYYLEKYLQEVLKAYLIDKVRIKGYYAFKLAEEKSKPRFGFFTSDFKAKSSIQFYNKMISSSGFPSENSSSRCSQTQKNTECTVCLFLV
Procedure: (§1) Species cross reactivity of the disclosed anti-KLB antibodies were analyzed by FACS analysis using KLB cDNA from mouse, rat, rabbit, cynomolgus monkey and rhesus monkey cloned into pRK mammalian expression vectors transiently transfected into HEK293T cells. The KLB extracellular domain polypeptide sequences that were expressed are as follows: […]

[2] = target: T2, rabbit KLB (+N-ter FLAG) (rabbit); experiment: FACS on transfected HEK293T cells
T2 construct: expressed from KLB cDNA on HEK293T cells and read by FACS
T2 chain: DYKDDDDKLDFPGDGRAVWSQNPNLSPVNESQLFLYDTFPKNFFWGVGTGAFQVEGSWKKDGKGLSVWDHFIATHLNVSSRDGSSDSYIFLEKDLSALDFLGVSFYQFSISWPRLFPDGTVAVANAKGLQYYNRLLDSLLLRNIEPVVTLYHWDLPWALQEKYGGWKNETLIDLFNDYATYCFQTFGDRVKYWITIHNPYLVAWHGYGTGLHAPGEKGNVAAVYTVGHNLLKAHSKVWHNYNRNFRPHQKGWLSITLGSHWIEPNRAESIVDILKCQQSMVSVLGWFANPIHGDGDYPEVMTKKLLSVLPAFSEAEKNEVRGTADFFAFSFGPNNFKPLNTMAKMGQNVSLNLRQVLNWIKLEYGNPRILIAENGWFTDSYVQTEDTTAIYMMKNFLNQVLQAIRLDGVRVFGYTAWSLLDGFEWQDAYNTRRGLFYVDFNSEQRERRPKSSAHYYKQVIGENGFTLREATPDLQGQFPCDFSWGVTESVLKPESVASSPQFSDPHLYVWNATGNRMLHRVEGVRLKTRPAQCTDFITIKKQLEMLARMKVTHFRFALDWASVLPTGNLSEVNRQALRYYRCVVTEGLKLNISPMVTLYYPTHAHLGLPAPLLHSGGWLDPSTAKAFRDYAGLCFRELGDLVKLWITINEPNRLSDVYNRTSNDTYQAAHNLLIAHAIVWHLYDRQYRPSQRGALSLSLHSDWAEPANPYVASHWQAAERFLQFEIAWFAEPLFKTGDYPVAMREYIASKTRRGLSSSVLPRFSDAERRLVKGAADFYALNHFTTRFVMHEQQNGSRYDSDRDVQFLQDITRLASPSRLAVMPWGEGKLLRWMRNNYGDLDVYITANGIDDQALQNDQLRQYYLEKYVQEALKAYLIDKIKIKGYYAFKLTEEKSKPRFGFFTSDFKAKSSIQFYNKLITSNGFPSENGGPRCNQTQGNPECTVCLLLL
Procedure: as §1

[3] = target: T3, human KLB expressed on cells (human, UniProt Q86Z14 53-1044); experiment: FACS on 293 cells expressing hKLB, antibody at 0.8 µg/ml, median shift
T3 construct: on transfected 293 / HEK293 cells; also called hKLB; beta-Klotho

[4] = target: T4, hKLB-ECD-HIS protein (human, UniProt Q86Z14 53-996); experiment: ELISA on hKLB-ECD-HIS protein, chimeric IgG (murine variable, hIgG1 constant regions), OD450
T4 construct: recombinant hKLB-ECD-HIS protein (R&D Systems); also called recombinant KLB-ECD protein; not shown: HIS tag
Description: In addition, some of the antibodies were ranked by ELISA. For these experiments, anti-KLB antibodies that were chimeric recombinant IgG with murine variable regions and hIgG1 constant regions were used to measure binding to hKLB-ECD-HIS protein.

binding result [1]: binds
binding result [2]: binds
binding result [3]: binds
B2: 12A11 (antibody, V domains shown)
VH: EVKFLESGGGLVQPGGSLRLSCAVSGIDFSRYWMSWVRQAPGKGLEWIGEISPDSSTINYTPSLKDKFVISRDNAKNTLYLQMSKVRSADTALYYCARPSPALDYWGQGTLVTVSA
VL: DIVMTQSPATLSVTPGDRVSLSCRASQSISDYVYWYQQKSHESPRLLIIYASQSISGIPSRFSGSGSGSDFTLSINSVEPEDVGVYYCQNGHNFPYTFGGGTKLEIK
notes: murine hybridoma-derived anti-KLB antibody; also called KLBmAb2

binding result [1]: binds
binding result [2]: binds
binding result [3]: binds
B3: 8H7 (antibody, V domains shown)
VH: QVQLQQPGAEIVKPGASVRLSCKASGYSFTSYWIHWVKQRPGQGLEWIGEIDPSVSNSNYNQKFKGKATLTADKSSSTAYMQLSGLTSEDSAVYFCVRLGVMVYGSSPFWFAYWGQGTLVTVSA
VL: DIVMTQSQKFMSTSVGDRVSITCKASQFVSDAVAWYQQKPGQSPKLLICSASYRYTGVPDRFTGSGSGTDFTFTISSVRTEDLAVYYCQQHYIVPYTFGGGTTLEIE
notes: murine hybridoma-derived anti-KLB antibody

binding result [1]: binds
binding result [2]: binds
binding result [3]: binds
binding result [4]: binds
B8: 8E1 (antibody, V domains shown)
VH: EVQLQQSGAELVKPGASVKLSCTAADFNIKDTYMHWVKQRPEQGLEWIGRIDPSNGNAKYDPKFQGKASITADSSSNTAYLHLSSLTSEDTAVYYCASRALGNGYALGYWGQGTSVTVSS
VL: DIQMTQSSSYLSVSLGGSVTITCKASDHINNWLAWYQQKPGNAPRLLIYGTTNLETGVPSRFSGSGSGRDYILSITSLQSEDVASYYCQQYWNTPFTFGSGTKLEIK
notes: as for B3

binding result [1]: binds
binding result [2]: binds
binding result [3]: binds
B12: 5F8 (antibody, V domains shown)
VH: EVQLQQSGTELVRPGASVKLSCTSSDFNIKDTYIHWVKQRPEQGLDWLGRIDPANGNTKYDPKFQGKAAMTSDTSSNTAYLRLSSLTSEDTAVYYCASSGNYGAMDYWGQGTSVTVSS
VL: ESVLTQSPALMSASLGEKVTMTCRASSSVNHMYWYQQKSDASPKLWIYYTSTLAPGVPARFSGSGSGNSYSLTISSMEGEDAATYYCQQFTISPSMYTFGGGTKLEIK
notes: as for B3

Continued, binder first:

B1: 14C6 (antibody, V domains shown)
VH: QIQLQQSGAELMKPGASVRMSCKASGYTFSSYWIEWVKQRSGHGLEWIGEIFPGGGSTIYNENFRDKATFTADTSSNTAYMQLSSLTSEDSAVYFCARRGYYDAAWFDYWGQGTLVTVSA
VL: QIVLTQSPAIMSASPGERVTLTCSASSSLSSSYLYWYQQKPGSSPKLWIYGASNLASGVPGRFSGSGSGTSYSLTISSMEAEDAASYFCHQWSSYPLTFGSGTKLELK
notes: as for B3
binding result [1]: binds
binding result [2]: binds
binding result [3]: binds

B4: 14C10 (antibody, V domains shown)
VH: QVTLKESGPGILQPSQTLSLTCSFSGFSLSTSAMGIGWIRQPSGKGLEWLAHIWWDDDKRYNPALKSRLTISKDTSRNQVFLKIASVDTADTATYFCARIDGIYDGSFYAMDYWGQGTSVTVSS
VL: DIVLTQSPASLAVSLGQRATISCRASESVDSYGNSFMHWYQQKPGQPPKLLIYRASNLESGIPARFSGSGSRTDFTLTINPVEADDVANYYCQQSNEDYTFGGGTKLEIK
notes: murine hybridoma-derived anti-KLB antibody; also called KLBmAb3
binding result [1]: binds
binding result [2]: binds
binding result [3]: binds

B5: 11D4 (antibody, V domains shown)
VH: QVQVKESGPGLVAPSQSLSITCTVSGFSLTNYGVSWIRQPPGKGLEWLGVIWGDGSINYHSALISRLTITKDNSKSQVFLKLNSLEADDTATYYCAKTHDWFDYWGQGTLVTVSA
VL: DIQMTQTPSSLSASLGDRVTINCRASQDISNYFNWYQQKPNGTIKLLIYYTSRLQSGVPSRFSGSGSGTDYSLTISNLEQEDKATYFCHQVRTLPWTFGGGTKLEIK
notes: murine hybridoma-derived anti-KLB antibody; also called KLBmAb5
binding result [1]: binds
binding result [2]: binds
binding result [3]: binds

B6: 24A1 (antibody, V domains shown)
VH: QVQLKQSGAELVRPGTSVTLSCKASGYTFTDYEMHWMKQTPVYGLEWIGAIWPENADSVYNQKFKGKVTLTADKSSSTAYMDLRSLTSEDSAVYYCTREGGNYWGQGTTLTVSS
VL: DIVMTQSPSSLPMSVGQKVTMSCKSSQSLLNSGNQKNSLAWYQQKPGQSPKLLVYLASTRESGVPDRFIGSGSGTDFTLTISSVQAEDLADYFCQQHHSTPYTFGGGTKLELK
notes: as for B3
binding result [1]: binds
binding result [2]: binds
binding result [3]: binds

B7: 12B8 (antibody, V domains shown)
VH: QIQLVQSGPELKKPGETAKISCKASGYAFSNYGMNWVKQAPGKDLKWMGWIDTDTGEATYTDDFKGRFVFSLETSASTAYLQINNLKNEDMATYFCAREEYGLFGFPYWGHGTLVTVSA
VL: DIQMTQSSSSFSVSLGDRVTITCKASEDIYNRLAWYQQKPGSAPRLLISAATSLETGVPSRFSGSGSGKDYTLSITSLQTEDVATYYCQQYWSNPLTFGAGTKLEIK
notes: as for B3
binding result [1]: binds
binding result [2]: binds
binding result [3]: binds

B9: 25F7 (antibody, V domains shown)
VH: EVQLQQSGAELLKPGASVRLSCTASGFNIQDTFTHWVRQRPEQGLEWIGRIDPSNGNTKYDPKFQGKAKILADTSSNTAYLQLIGLTSEDTAVYYCASRALGNGYAMDYWGQGTSVTVSS
VL: B8 VL with S18R, Y49S, T51A, T52S, V58I, R69K, I72T, S74T, S80T, S85T
notes: as for B3
binding result [1]: binds
binding result [3]: binds

B10: 8C5 (antibody, V domains shown)
VH: QVQLKQSGPGLVQPSQSLSVACTVSDFSLTTYGVHWVRQSPGKGLEWLGVIWSGGSTDYNAAFISRLTISKDNSKSQVFFKMNSLQTTDTAIYYCARDYGSTYVDAIDYWGQGTSVTVSS
VL: DIVLTQSPTSLAVSLGQRATISCRASESVESYGNRYMTWYQQKPGQPPKLLIYRAANLQSGIPARFSGSGSRTDFTLTIDPVEADDVATYYCQQSNEDPWTFGGGTKVEIK
notes: murine hybridoma-derived anti-KLB antibody; also called KLBmAb1
binding result [1]: binds
binding result [2]: no binding
binding result [3]: binds
binding result [4]: binds

B11: 6C1 (antibody, V domains shown)
VH: QVQLQQSGDELMKPGASVKISCKVTGNTFSSYWIEWVKQRPGHGLEWIGEILPGSDSTKYVEKFKVKATFTADTSSNTAYMQLSSLTSEDSAVYYCARGGYHYPGWLVYWGQGTLVTVSA
VL: DIVMTQSQKFMSTSVGDRVSVTCKASQNVDSYVAWYQQKAGQSPKPLIYSASYRFSGVPDRFTGSGSGTEFTLTISNVQSEDLAEYFCQQYNISPYTFGGGTKLEIK
notes: murine hybridoma-derived anti-KLB antibody; also called KLBmAb4
binding result [1]: binds
binding result [2]: binds
binding result [3]: binds
